Reference: article PMC12768534 (Science immunology, 2025)

Target: mIL-21 (mouse, UniProt Q9ES17 18-146)
Assay: BLI; mIL-21 and 21h10 incubated in PBS or murine serum for 1-240 minutes at 37°C, then binding to mIL-21R
Settings: both partners purified

binding result: binds
B1: biotinylated mIL-21R (receptor)
chain: not shown
modifications: biotin (biotinylated)
notes: murine IL-21 receptor, biotinylated recombinant protein; Held on streptavidin biosensors by its biotin; limits and tags are the vendor's; also called murine IL-21 receptor; source: bought: Acro Biosystems Cat# ILR-M82E3
